# Values quoted from earlier work in publication PMC554781.
# Target: CD200R (Homo sapiens) (UniProt Q8TD46)
# UniProt Q8TD46, sequence (Q8TD46 25-265): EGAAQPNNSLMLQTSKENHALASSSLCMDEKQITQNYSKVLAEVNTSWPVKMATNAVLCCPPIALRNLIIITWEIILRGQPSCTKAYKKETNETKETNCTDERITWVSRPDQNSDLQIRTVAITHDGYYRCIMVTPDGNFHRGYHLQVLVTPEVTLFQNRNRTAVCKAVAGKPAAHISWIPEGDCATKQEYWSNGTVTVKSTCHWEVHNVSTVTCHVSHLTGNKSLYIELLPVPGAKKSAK
substance,measurement,value
CD200 (from UniProt P41217),Kd,500 nM
